{"source": "paper PMC8957996", "key": {"[1]": {"target": "des-(Val^1-Gly^2)gA^–", "assay": "single-channel electrophysiology (planar lipid bilayer); DOPC/n-decane bilayer, AgA(15) and gA^-(13) together, 1 M NaCl, pH 7, 200 mV, 500 Hz; 25 ± 1 °C"}, "[2]": {"target": "des-(Val^1-Gly^2)gA^–", "assay": "single-channel electrophysiology (planar lipid bilayer); DoPC (ether phospholipid)/n-decane bilayer, AgA(15) and gA^-(13) together, 1 M NaCl, pH 7 (10 mM HEPES), 200 mV, 500 Hz; 25 ± 1 °C"}, "[3]": {"target": "des-(Val^1-Gly^2)gA^–", "assay": "single-channel electrophysiology (planar lipid bilayer); DLoPC/n-decane bilayer (25 uM butylated hydroxytoluene in the bilayer-forming solution), AgA(15) and gA^-(13) together, 1 M NaCl, pH 7 (10 mM HEPES), 200 mV, 500 Hz; 25 ± 1 °C"}, "[4]": {"target": "[Val^1]gA", "assay": "single-channel electrophysiology (planar lipid bilayer); DOPS/n-decane bilayer, 0.1 M Na+, pH 7 (HEPES); bilayer punch method, 25 ± 1 °C, ±200 mV"}, "[5]": {"target": "[Val^1]gA", "assay": "single-channel electrophysiology (planar lipid bilayer); DOPS/n-decane bilayer, 0.1 M Na+, pH 4 (Gly-Gly); bilayer punch method, 25 ± 1 °C, ±200 mV"}, "[6]": {"target": "[Val^1]gA", "assay": "single-channel electrophysiology (planar lipid bilayer); DOPS/n-decane bilayer, 0.1 M Na+, pH 5 (Gly-Gly); bilayer punch method, 25 ± 1 °C, ±200 mV"}, "[7]": {"target": "[Val^1]gA", "assay": "single-channel electrophysiology (planar lipid bilayer); DOPS/n-decane bilayer, 0.1 M Na+, pH 6 (Na2HPO4); bilayer punch method, 25 ± 1 °C, ±200 mV"}, "[8]": {"target": "[Val^1]gA", "assay": "single-channel electrophysiology (planar lipid bilayer); DOPS/n-decane bilayer, 0.1 M Na+, pH 7 (Na2HPO4); bilayer punch method, 25 ± 1 °C, ±200 mV"}, "[9]": {"target": "[Val^1]gA", "assay": "single-channel electrophysiology (planar lipid bilayer); DOPE:DOPC (4:1)/n-decane bilayer, 0.1 M Na+, pH 0; bilayer punch method, 25 ± 1 °C, ±200 mV"}, "[10]": {"target": "[Val^1]gA", "assay": "single-channel electrophysiology (planar lipid bilayer); DOPE:DOPC (4:1)/n-decane bilayer, 0.1 M Na+, pH 1; bilayer punch method, 25 ± 1 °C, ±200 mV"}, "[11]": {"target": "[Val^1]gA", "assay": "single-channel electrophysiology (planar lipid bilayer); DOPS/n-decane bilayer, 0.1 M Na+, pH 3 (Gly-Gly); bilayer punch method, 25 ± 1 °C, ±200 mV"}, "[12]": {"target": "[Val^1]gA", "assay": "single-channel electrophysiology (planar lipid bilayer); DOPE:DOPC (4:1)/n-decane bilayer, 0.1 M Na+, pH 3 (Gly-Gly); bilayer punch method, 25 ± 1 °C, ±200 mV"}, "[13]": {"target": "[Val^1]gA", "assay": "single-channel electrophysiology (planar lipid bilayer); DOPE:DOPC (4:1)/n-decane bilayer, 0.1 M Na+, pH 5 (Gly-Gly); bilayer punch method, 25 ± 1 °C, ±200 mV"}, "[14]": {"target": "[Val^1]gA", "assay": "single-channel electrophysiology (planar lipid bilayer); DOPE:DOPC (4:1)/n-decane bilayer, 0.1 M Na+, pH 9 (Na2HPO4); bilayer punch method, 25 ± 1 °C, ±200 mV"}, "[15]": {"target": "[Val^1]gA", "assay": "single-channel electrophysiology (planar lipid bilayer); DOPS:DOPC (1:2)/n-decane bilayer, 0.1 M Na+, pH 7 (HEPES); bilayer punch method, 25 ± 1 °C, ±200 mV"}, "[16]": {"target": "[Val^1]gA", "assay": "single-channel electrophysiology (planar lipid bilayer); DOPS:DOPE (1:2)/n-decane bilayer, 0.1 M Na+, pH 7 (HEPES); bilayer punch method, 25 ± 1 °C, ±200 mV"}, "[17]": {"target": "[Val^1]gA", "assay": "single-channel electrophysiology (planar lipid bilayer); DOPC/n-decane bilayer, 1.0 M NaCl, unbuffered (pH 6-7); bilayer punch method, 25 ± 1 °C, 200 mV, 100 Hz"}, "[18]": {"target": "[Val^1]gA", "assay": "single-channel electrophysiology (planar lipid bilayer); DOPE:DOPC (4:1)/n-decane bilayer, 0.1 M Na+, pH 7.8 (Na2HPO4); bilayer punch method, 25 ± 1 °C, ±200 mV"}, "[19]": {"target": "[Val^1]gA", "assay": "single-channel electrophysiology (planar lipid bilayer); DOPE:DOPC (1:1)/n-decane bilayer, 1.0 M NaCl, unbuffered (pH 6-7); bilayer punch method, 25 ± 1 °C, 200 mV, 100 Hz"}, "[20]": {"target": "[Val^1]gA", "assay": "single-channel electrophysiology (planar lipid bilayer); DOPE:DOPC (1:3)/n-decane bilayer, 1.0 M NaCl, unbuffered (pH 6-7); bilayer punch method, 25 ± 1 °C, 200 mV, 100 Hz"}, "[21]": {"target": "[Val^1]gA", "assay": "single-channel electrophysiology (planar lipid bilayer); DOPE:DOPC (3:1)/n-decane bilayer, 1.0 M NaCl, unbuffered (pH 6-7); bilayer punch method, 25 ± 1 °C, 200 mV, 100 Hz"}, "[22]": {"target": "[Val^1]gA", "assay": "single-channel electrophysiology (planar lipid bilayer); DOPS/n-decane bilayer, 0.1 M Na+, pH 8 (Na2HPO4); bilayer punch method, 25 ± 1 °C, ±200 mV; monomers in opposing monolayers dimerise to the conducting channel"}, "[23]": {"target": "[Ala^1]gA", "assay": "single-channel electrophysiology (planar lipid bilayer); DOPC/n-decane bilayer, AgA(15) and gA^-(13) together, 1 M NaCl, pH 7, 200 mV, 500 Hz; 25 ± 1 °C"}, "[24]": {"target": "[Ala^1]gA", "assay": "single-channel electrophysiology (planar lipid bilayer); DoPC (ether phospholipid)/n-decane bilayer, AgA(15) and gA^-(13) together, 1 M NaCl, pH 7 (10 mM HEPES), 200 mV, 500 Hz; 25 ± 1 °C"}, "[25]": {"target": "[Ala^1]gA", "assay": "single-channel electrophysiology (planar lipid bilayer); DLoPC/n-decane bilayer (25 uM butylated hydroxytoluene in the bilayer-forming solution), AgA(15) and gA^-(13) together, 1 M NaCl, pH 7 (10 mM HEPES), 200 mV, 500 Hz; 25 ± 1 °C"}}}
{"substance": "des-(Val^1-Gly^2)gA^– (peptide)", "values": [{"measurement": "channel lifetime tau (= 1/k-1, dissociation of the dimer)", "setting": "[1]", "result": 13.8, "unit": "ms"}, {"measurement": "channel lifetime tau (= 1/k-1, dissociation of the dimer)", "setting": "[2]", "result": 29, "unit": "ms"}, {"measurement": "channel lifetime tau (= 1/k-1, dissociation of the dimer)", "setting": "[3]", "result": 61, "unit": "ms"}]}
{"substance": "[Val^1]gA (peptide)", "values": [{"measurement": "channel lifetime tau (= 1/k-1, dissociation of the dimer)", "setting": "[4]", "result": 1340, "unit": "ms"}, {"measurement": "channel lifetime tau (= 1/k-1, dissociation of the dimer)", "setting": "[5]", "result": 270, "unit": "ms"}, {"measurement": "channel lifetime tau (= 1/k-1, dissociation of the dimer)", "setting": "[6]", "result": 800, "unit": "ms"}, {"measurement": "channel lifetime tau (= 1/k-1, dissociation of the dimer)", "setting": "[7]", "result": 920, "unit": "ms"}, {"measurement": "channel lifetime tau (= 1/k-1, dissociation of the dimer)", "setting": "[8]", "result": 1320, "unit": "ms"}, {"measurement": "channel lifetime tau (= 1/k-1, dissociation of the dimer)", "setting": "[9]", "result": 220, "unit": "ms"}, {"measurement": "channel lifetime tau (single experiment)", "setting": "[9]", "result": 235, "unit": "ms"}, {"measurement": "channel lifetime tau (= 1/k-1, dissociation of the dimer)", "setting": "[10]", "result": 90, "unit": "ms"}, {"measurement": "channel lifetime tau (= 1/k-1, dissociation of the dimer)", "setting": "[11]", "result": 170, "unit": "ms"}, {"measurement": "fold decrease of k1 (association rate constant) against pH 7", "setting": "[11]", "result": "100 to 400", "unit": "fold"}, {"measurement": "fold decrease of the dimerization constant KD (= k1·τ) against pH 7", "setting": "[11]", "result": 1000, "unit": "fold"}, {"measurement": "channel lifetime tau (= 1/k-1, dissociation of the dimer)", "setting": "[12]", "result": 70, "unit": "ms"}, {"measurement": "channel lifetime tau (= 1/k-1, dissociation of the dimer)", "setting": "[13]", "result": 80, "unit": "ms"}, {"measurement": "channel lifetime tau (single experiment)", "setting": "[13]", "result": 65, "unit": "ms"}, {"measurement": "channel lifetime tau (= 1/k-1, dissociation of the dimer)", "setting": "[14]", "result": 150, "unit": "ms"}, {"measurement": "channel lifetime tau (single experiment)", "setting": "[14]", "result": 162, "unit": "ms"}, {"measurement": "channel lifetime tau (= 1/k-1, dissociation of the dimer)", "setting": "[15]", "result": 470, "unit": "ms"}, {"measurement": "channel lifetime tau (single experiment)", "setting": "[15]", "result": 486, "unit": "ms"}, {"measurement": "channel lifetime tau (= 1/k-1, dissociation of the dimer)", "setting": "[16]", "result": 140, "unit": "ms"}, {"measurement": "channel lifetime tau (single experiment)", "setting": "[16]", "result": 143, "unit": "ms"}, {"measurement": "channel lifetime tau (= 1/k-1, dissociation of the dimer)", "setting": "[17]", "result": 550, "unit": "ms"}, {"measurement": "channel lifetime tau (single experiment)", "setting": "[17]", "result": 563, "unit": "ms"}, {"measurement": "channel lifetime tau (= 1/k-1, dissociation of the dimer)", "setting": "[18]", "result": 100, "unit": "ms"}, {"measurement": "channel lifetime tau (= 1/k-1, dissociation of the dimer)", "setting": "[19]", "result": 240, "unit": "ms"}, {"measurement": "channel lifetime tau (single experiment)", "setting": "[19]", "result": 229, "unit": "ms"}, {"measurement": "channel lifetime tau (= 1/k-1, dissociation of the dimer)", "setting": "[20]", "result": 350, "unit": "ms"}, {"measurement": "channel lifetime tau (single experiment)", "setting": "[20]", "result": 304, "unit": "ms"}, {"measurement": "channel lifetime tau (= 1/k-1, dissociation of the dimer)", "setting": "[21]", "result": 260, "unit": "ms"}, {"measurement": "fold decrease of k1 (association rate constant) against DOPC bilayers", "setting": "[21]", "result": 10, "unit": "fold"}, {"measurement": "fold decrease of the dimerization constant KD (= k1·τ) against DOPC bilayers", "setting": "[21]", "result": 20, "unit": "fold"}, {"measurement": "channel lifetime tau (= 1/k-1, dissociation of the dimer)", "setting": "[22]", "result": 1380, "unit": "ms"}]}
{"substance": "[Ala^1]gA (peptide)", "values": [{"measurement": "channel lifetime tau (= 1/k-1, dissociation of the dimer)", "setting": "[23]", "result": 170, "unit": "ms"}, {"measurement": "channel lifetime tau (= 1/k-1, dissociation of the dimer)", "setting": "[24]", "result": 296, "unit": "ms"}, {"measurement": "channel lifetime tau (= 1/k-1, dissociation of the dimer)", "setting": "[25]", "result": 823, "unit": "ms"}]}
